# Where two headings read alike, the source gives them in different places.
# How the values were obtained:
# [1] = Accelerated stability study at 37° C., BIOD 901 compared to Lilly glucagon (Example 3); format: physicochemical; conditions: in solution at pH 4
# [2] = cited from earlier work
# [3] = cited from earlier work; remark: listed apart in the source
substance,measurement,setting,value
glucagon,time to gel,[1],≤ 2 days
same,gel formation,[2]; acidic aqueous conditions (pH 3-4),forms a gel
same,precipitation,[2]; neutral aqueous solution,precipitates within an hour of preparation
same,solubility in aqueous solutions,[2]; pH less than 3 or greater than 9,soluble
same,solubility in aqueous solutions,[2]; pH range of 4 to 8,low solubility
same,onset of action post injection,[3],5 to 20 min

# — US9610329B2 (Albireo Pharma, Inc., priority 2009, dated 2017)
